According to paper PMC9076686, “Calcium bursts allow rapid reorganization of EFhD2/Swip-1 cross-linked actin networks in epithelial wound closure” (Nature Communications, 2022):

Tests used:
[1] = molecular target: T1, Actin from rabbit skeletal muscle (F-actin) (rabbit, UniProt P68135 1-377); test: co-sedimentation; high-speed pelleting at 200,000 x g, 4 °C, 1 h; 8 µM G-actin polymerised with increasing Swip-1 in 1x KMI (10 mM imidazole pH 7.0, 50 mM KCl, 1 mM MgCl2) with 1 mM CaCl2 for 2 h at 4 °C; presence of calcium; fit to independent, identical binding sites; details: both partners purified
[2] = molecular target: T1, Actin from rabbit skeletal muscle …; test: co-sedimentation; high-speed pelleting at 200,000 x g, 4 °C, 1 h; 8 µM G-actin polymerised with increasing Swip-1 in 1x KMEI (10 mM imidazole pH 7.0, 50 mM KCl, 1 mM MgCl2, 1 mM EGTA) for 2 h at 4 °C; absence of calcium; fit to independent, identical binding sites; details: both partners purified

B1: Drosophila Swip-1 (EFhD2/Swip-1), recombinant wild type (natural protein)
chain: MSVSSNASSASNKDSVDSPSSTTNTDSSELTHILNRRQEIMESQEAGIEVRRTYKVVNVYTDFPEFSRNQIKDYQKTFNTYDTARDGFLDLQELKFMMEKLGAPQTHLGLKQMIAEVDEDNDGKISFREFLLIFRKAQAGELDSDSGLNQLARLTEVDVEQVGVSGAKNFFEAKIEQQLRTNKFHDEIRAEQEERRREEEERAQRRQQFQQRAAIFQ
notes: residues left after PreScission cleavage are not described; source: E. coli Rossetta 2, purified (glutathione agarose, GST cleaved by PreScission protease, size-exclusion chromatography)
- Kd [1]: 0.9 ± 0.1 µM
- stoichiometry N [1]: ~0.5 Swip-1:actin
- Kd [2]: 4.3 ± 1.3 µM
- stoichiometry N [2]: ~1 Swip-1:actin
